Results: US20070248613A1 (MERCK, published 2007)
“And” between values parts separate entries of the source, which are not always exact repeats. Identical values can stand only once.

Columns and labels:
5-Helix [1] = target: T1, 5-Helix (HIV-1); test: phage ELISA on biotinylated peptide captured on streptavidin plates
T1 construct: also called HIV-1 gp41-derived 5-Helix; biotinylated 5-Helix

5-Helix [2] = target: T1, 5-Helix; test: SPR (Biacore)
[3] = target: gp41 of the HIV-1 MN-1 envelope (HIV-1 strain MN-1, UniProt P05877 514-856); test: cell-based or functional assay
[4] = target: T2, gp41 of the HIV-1 HXB2 envelope (HIV-1 strain HXB2, UniProt P04578 512-856); test: cell-based or functional assay
[5] = target: gp41 of the HIV-1 BaL envelope (HIV-1 strain BaL); test: cell-based or functional assay
[6] = target: gp41 of the HIV-1 NL4-3 envelope (HIV-1 strain NL4-3); test: cell-based or functional assay
[7] = target: gp41 of the HIV-1 89.6 envelope (HIV-1 strain 89.6); test: cell-based or functional assay
[8] = target: T2, gp41 of the HIV-1 HXB2 envelope; test: cell-based or functional assay; remark: listed apart in the source
[9] = target: gp41 of the HIV-1 BaL envelope (HIV-1 strain BaL); test: cell-based or functional assay; remark: listed apart in the source

Binder | binding result (5-Helix [1]) | Kd (5-Helix [2]) | koff (5-Helix [2]) | kon (5-Helix [2]) | D5 IgG IC50 (nM), single cycle infectivity assay [3] | D5 IgG IC50 (nM), single cycle infectivity assay [4] | D5 IgG IC50 (nM), single cycle infectivity assay [5] | D5 IgG IC50 (nM), single cycle infectivity assay [6] | D5 IgG IC50 (nM), single cycle infectivity assay [7] | IC50, single cycle infectivity assay against HIV-HXB2 [8] | IC50 (printed TC50), single cycle infectivity assay against HIV-HXB2 [8] | IC50, single cycle infectivity assay [8] | IC50, single cycle infectivity assay [9]
5H/I1-BMV-B11 scFv (scFv, also called scFv B11) scFv: QVQLVQSGAEVKKPGSSVKVSCKASGGTFSSYAISWVRQAPGQGLEWMGGIIPLFDTSNYAQNFQGRITITADKSTSTAYMELSSLRFEDTAIYYCARDNPLLLAMDVWGKGTTVTVSSGGGGSGGGGSGGGGSDIQMTQSPSTLSASIGDRVTITCRASEGIYHWLAWYQQKPGKAPKLLIYKASSLASGAPSRFSGSGSGTDFTLTISSLQPDDFATYYCQQYSNYPLTFGGGTKLEIK | binds |  |  |  |  |  |  |  |  |  |  |  | 
D5 IgG (antibody, V domains shown, also called D5 IgG4; D5 antibody) VH: QVQLVQSGAEVRKPGASVKVSCKASGDTFSSYAISWVRQAPGQGLEWMGGIIPIFGTANYAQKFQGRVTITADESTSTAYMELSSLRSEDTAIYYCARDNPTLLGSDYWGKGTLVTVSS VL: DIQMTQSPSTLSASIGDRVTITCRASEGIYHWLAWYQQKPGKAPKLLIYKASSLASGAPSRFSGSGSGTDFTLTISSLQPDDFATYYCQQYSNYPLTFGGGTKLEIK |  | 0.26 nM | 0.0001 s⁻¹ | 390000 M⁻¹ s⁻¹ | 393 nM | 310 nM | 93 nM | 226 nM | 1750 nM | 261 nM |  |  | 
5H/I1-BMV-D5 scFv (scFv, also called scFv D5) scFv: QVQLVQSGAEVRKPGASVKVSCKASGDTFSSYAISWVRQAPGQGLEWMGGIIPIFGTANYAQKFQGRVTITADESTSTAYMELSSLRSEDTAIYYCARDNPTLLGSDYWGKGTLVTVSSGGGGSGGGGSGGGGSDIQMTQSPSTLSASIGDRVTITCRASEGIYHWLAWYQQKPGKAPKLLIYKASSLASGAPSRFSGSGSGTDFTLTISSLQPDDFATYYCQQYSNYPLTFGGGTKLEIK | binds |  |  |  |  |  |  |  |  |  | 238 nM | 320 nM and 8 ug/ml | 600 nM and 15 ug/ml
